For assay [1], the target named is fluorescein-labeled N2B peptide (NHR2-binding motif of E-proteins). Nature of the assay: fluorescence polarisation. In general terms: Polarisation of emitted light reports the rotation of a fluorescent probe.
Assay [2] addresses N2B peptide (NHR2-binding motif of E-proteins) (Homo sapiens, UniProt Q99081). The following applies: ratio of Kd values, FP assay with flu-N2B.

Turning to “GST-NHR2(482–551), native Nervy homology two (NHR2) coiled coil domain of AML1-ETO (domain or fragment)”, the Kd in assay [1] was 356 µM.
For `CC[C@H](C)[C@@H]1NC(=O)[C@H](CO)NC(=O)[C@H](CCCNC(=N)N)NC(=O)[C@H](Cc2c[nH]c3ccccc23)NC(=O)[C@@H](NC(=O)[C@H](CCC(=O)O)NC(C)=O)CSSC[C@@H](C(=O)N[C@@H](CCCNC(=N)N)C(N)=O)NC(=O)[C@H](CC(C)C)NC(=O)[C@H](CCC(=O)O)NC(=O)[C@@H](NC(=O)[C@H](CC(C)C)NC(=O)[C@H](Cc2c[nH]cn2)NC(=O)[C@H](Cc2c[nH]c3ccccc23)NC(=O)[C@H](CC(C)C)NC(=O)[C@H](CCC(=O)O)NC(C)=O)CCCCn2cc(nn2)COCc2cn(nn2)CCCC[C@@H](C(N)=O)NC(=O)[C@H](CC(C)C)NC(=O)[C@H](C(C)C)NC(=O)[C@H](CCCNC(=N)N)NC1=O` [CHD^DS-NHR2-3], in assay [2], the “enhanced affinity versus the native NHR2 coiled coil” value turned out to be 5 fold.

The term Kd denotes the free concentration of one partner at which half of the binding sites on the other are occupied at equilibrium, for simple one-to-one binding.

For the origin of these results see paper PMC4577959 (Journal of the American Chemical Society, 2015).
